Data set [1] concerns the molecule itself. In words: SEC.
Data set [2] addresses Dansyl-labeled CaM (UniProt P0DP23 1-149, Dansyl label (site not stated)). In words: other fluorescence titration.
Data set [3] deals with the molecule itself. In words: SEC. This is another data set of the same source. (In general: In gel filtration, larger molecules generally elute earlier.)
Data set [4] addresses T1, recombinant 6xHis-tagged calmodulin (UniProt P0DP23 1-149). In words: ITC. (In general: In ITC the heat of successive injections is recorded.)
Data set [5] concerns the target T1, recombinant 6xHis-tagged calmodulin. In words: ITC. This is another data set of the same source.
The target is the same in data set [6]. Kind of data set: other fluorescence titration.
For data set [7] the target is unchanged. In words: ITC. The source holds these as a separate data set.
The target is the same in data set [8]. Kind of data set: ITC. This is another data set of the same source.
For data set [9], the target named is C-terminal half domain of CaM (residues 76-149) fused to blue fluorescent protein (UniProt P0DP23 76-149). Kind of data set: ITC.
In data set [10] the target is N-terminal half domain of CaM (residues 1-75) fused to cyan fluorescent protein (UniProt P0DP23 1-75). In words: ITC.
Data set [11] concerns the target T1, recombinant 6xHis-tagged calmodulin. In words: ITC. The source holds these as a separate data set.
Data set [12] has the same target. In words: fluorescence polarisation. (In general: Polarisation of emitted light reports the rotation of a fluorescent probe.)
Data set [13] has the same target. Kind of data set: other fluorescence titration. This is another data set of the same source.

Read-outs that look alike come from different tables or passages of the source. Where no end group is shown, it is not given here. The star is where a group is joined. Dansyl = CN(C)c1cccc2c(S(=O)(=O)*)cccc12; MBP = maltose binding protein fusion

The stoichiometry N is the number of molecules, sites or subunits per partner or assembly.

B1: MBP-fused human Nox5β dehydrogenase domain residues 584-719 (domain or fragment, UniProt Q96PH1-4 584-719, looked up)
chain: KLHKVDFIWINRDQRSFEWFVSLLTKLEMDQAEEAQYGRFLELHMYMTSALGKNDMKAIGLQMALDLLANKEKKDSITGLQTRTQPGRPDWSKVFQKVAAEKKGKVQVFFCGSPALAKVLKGHCEKFGFRFFQENF
With B1, the entries for the “stoichiometry N” value in data set [1], in data set [2] and in [3] were around 4, 0.89 [Peptide]/[Protein] and around 3, respectively. Besides, the Ka in [2] was determined as 1.82e+06 M⁻¹; in data set [4], 933000 M⁻¹.

B2: MBP-fused human Nox5β dehydrogenase domain residues 605-719 (domain or fragment)
chain: SLLTKLEMDQAEEAQYGRFLELHMYMTSALGKNDMKAIGLQMALDLLANKEKKDSITGLQTRTQPGRPDWSKVFQKVAAEKKGKVQVFFCGSPALAKVLKGHCEKFGFRFFQENF
Consider B2, for which the figures for the Ka in data set [2], in data set [5] and in data set [4] were 2.52e+06 M⁻¹, around 1e+06 M⁻¹ and 894000 M⁻¹, respectively. For the same molecule, the “stoichiometry N” value in data set [2] was 1.02 [Peptide]/[Protein].

Turning to RPDWSKVFQKVAAEKKGKV [human Nox5β CaM-binding domain (CMBD) peptide, residues 671-689], the Ka stood at 1.71e+07 M⁻¹ in data set [6]; 1.02e+06 M⁻¹ in data set [7]; 950000 M⁻¹ in data set [9]; 2.42e+06 M⁻¹ in [10]; 878000 M⁻¹ in data set [11]; 8.64e+06 M⁻¹ in data set [12]. Moreover, the “dH (per mole CMBD)” value in data set [8] was -3.81 kcal/mol. Also, the “stoichiometry N” value was 1.83 in data set [8], 1.04 [peptide]/Protein] in data set [9], 0.89 [peptide]/Protein] in data set [10] and 1.82 [peptide]/Protein] in [11]. The “dH (per mole protein)” value in data set [9] was -4.02 kcal/mol; in [10] it was -3.94 kcal/mol; in data set [11] it was -6.94 kcal/mol.

Dansyl-RPDWSKVFQKVAAEKKGKV [N-terminal Dansyl-labeled human Nox5β CMBD peptide]: the Ka in [13] is 4.95e+06 M⁻¹.

B3: MBP-fused human Nox5β dehydrogenase domain residues 665-719 (domain or fragment)
chain: {MBP}-TRTQPGRPDWSKVFQKVAAEKKGKVQVFFCGSPALAKVLKGHCEKFGFRFFQENF
modifications: cysteine pairing not given here
Turning to B3, in [2], the Ka was 4.9e+06 M⁻¹ and the “stoichiometry N” value is 0.92 [Peptide]/[Protein]. Moreover, the Ka in data set [4] worked out at 1.39e+06 M⁻¹.

B4: MBP-fused human Nox5β dehydrogenase domain residues 528-719 (domain or fragment)
chain: PTRRIFASEHAVLIGAGIGITPFASILQSIMYRHQKRKHTCPSCQHSWIEGVQDNMKLHKVDFIWINRDQRSFEWFVSLLTKLEMDQAEEAQYGRFLELHMYMTSALGKNDMKAIGLQMALDLLANKEKKDSITGLQTRTQPGRPDWSKVFQKVAAEKKGKVQVFFCGSPALAKVLKGHCEKFGFRFFQENF
B4: the Ka is 1.39e+06 M⁻¹ in data set [2] and 2.71e+06 M⁻¹ in data set [4]. For the same molecule, in data set [2], the “stoichiometry N” value was 0.92 [Peptide]/[Protein].

The record behind these values is paper PMC8777244 (Biochemistry and Biophysics Reports, 2022).
